Holding throughout (experiment): cell-based or functional assay
One series deals with CD123 antigen (UniProt P26951 19-378, limits assumed).
In another series the target is CD33 antigen (UniProt P20138 18-364, limits assumed).
Series [1] addresses prostate membrane antigen (UniProt Q04609 1-750, limits assumed).
Series [2] has as its target T1, prostate stem cell antigen (UniProt O43653 12-83, limits assumed).
T1 sequence (looked up): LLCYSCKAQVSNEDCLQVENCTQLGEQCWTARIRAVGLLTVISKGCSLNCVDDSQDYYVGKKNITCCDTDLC

Chain of CD33 antigen (P20138 18-364 limits assumed): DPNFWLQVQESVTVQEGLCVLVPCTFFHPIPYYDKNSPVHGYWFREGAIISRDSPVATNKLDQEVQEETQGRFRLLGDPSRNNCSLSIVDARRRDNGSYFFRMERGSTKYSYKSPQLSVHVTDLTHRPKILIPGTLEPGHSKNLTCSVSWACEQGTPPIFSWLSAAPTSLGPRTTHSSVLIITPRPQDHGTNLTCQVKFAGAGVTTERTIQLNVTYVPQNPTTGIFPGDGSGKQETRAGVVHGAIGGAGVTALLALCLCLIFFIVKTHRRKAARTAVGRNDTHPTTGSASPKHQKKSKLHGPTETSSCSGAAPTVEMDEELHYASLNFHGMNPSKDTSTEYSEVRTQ
Chain of CD123 antigen (P26951 19-378 limits assumed): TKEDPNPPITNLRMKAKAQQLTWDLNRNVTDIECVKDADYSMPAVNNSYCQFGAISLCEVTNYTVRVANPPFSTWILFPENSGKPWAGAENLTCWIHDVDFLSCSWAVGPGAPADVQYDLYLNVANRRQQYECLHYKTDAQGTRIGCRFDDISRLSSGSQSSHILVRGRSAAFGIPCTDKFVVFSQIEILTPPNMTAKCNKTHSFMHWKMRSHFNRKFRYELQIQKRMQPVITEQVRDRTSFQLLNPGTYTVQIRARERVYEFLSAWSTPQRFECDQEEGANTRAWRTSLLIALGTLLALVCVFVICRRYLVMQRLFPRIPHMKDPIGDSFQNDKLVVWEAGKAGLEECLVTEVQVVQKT
Chain of prostate membrane antigen (Q04609 whole entry): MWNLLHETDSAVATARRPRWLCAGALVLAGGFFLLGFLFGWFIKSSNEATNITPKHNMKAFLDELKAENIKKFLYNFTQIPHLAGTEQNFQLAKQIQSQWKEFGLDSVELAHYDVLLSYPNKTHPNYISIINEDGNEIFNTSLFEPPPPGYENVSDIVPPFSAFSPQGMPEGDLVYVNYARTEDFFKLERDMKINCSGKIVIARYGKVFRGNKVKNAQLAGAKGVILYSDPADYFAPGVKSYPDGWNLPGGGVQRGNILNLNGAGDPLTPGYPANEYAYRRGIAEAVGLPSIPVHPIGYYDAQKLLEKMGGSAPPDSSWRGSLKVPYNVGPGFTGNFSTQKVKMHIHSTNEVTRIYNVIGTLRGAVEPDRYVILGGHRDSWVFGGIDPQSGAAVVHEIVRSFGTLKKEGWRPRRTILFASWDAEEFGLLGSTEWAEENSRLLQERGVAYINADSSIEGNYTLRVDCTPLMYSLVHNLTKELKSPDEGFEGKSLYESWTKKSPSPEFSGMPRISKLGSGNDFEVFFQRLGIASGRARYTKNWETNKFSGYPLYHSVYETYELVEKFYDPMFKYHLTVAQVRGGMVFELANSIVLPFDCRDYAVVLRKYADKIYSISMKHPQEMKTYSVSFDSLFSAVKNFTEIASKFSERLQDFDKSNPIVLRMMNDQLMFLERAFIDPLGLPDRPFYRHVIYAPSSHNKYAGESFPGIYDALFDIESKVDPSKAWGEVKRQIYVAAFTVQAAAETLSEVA

B1: target module specific for CD123 (scFv)
scFv: DAAQPAEVQLQQSGPELVKPGASVKMSCKASGYTFTDYYMKWVKQSHGKSLEWIGDIIPSNGATFYNQKFKGKATLTVDRSSSTAYMHLNSLTSEDSAVYYCTRSHLLRASWFAYWGQGTLVTVSAASGGGGSGGGGSGGGGSDFVMTQSPSSLTVTAGEKVTMSCKSSQSLLNSGNQKNYLTWYLQKPGQPPKLLIYWASTRESGVPDRFTGSGSGTDFTLTISSVQAEDLAVYYCQNDYSYPYTFGGGTKLEIKGGGGSAAAKPLPEVTDEYARGGPEQKLISEEDLNSAVDHHHHHH
For B1, in the series with CD123 antigen, the “EC50, 51Cr-release lysis of MOLM-13 by UniCAR T cells, e:t 1:1, 24 h; combination of αCD33 TM + αCD123 TM” value amounted to 70.2 pmol; the “EC50, 51Cr-release lysis of OCI-AML3 by UniCAR T cells, e:t 1:1, 24 h; combination of αCD33 TM + αCD123 TM” value turned out to be 80.2 pmol; the “EC50, lysis of MOLM-13 by UniCAR T cells, e:t 1:1” value came out at 45 pmol.

B2: target module specific for CD33 (scFv)
scFv: DAAQPAGSDIVLTQSPASLAVSPGQRATITCTASSSVNYIHWYQQKPGQPPKLLIYDTSKVASGVPARFSGSGSGTDFTLTINPVEANDTANYYCQQWRSYPLTFGQGTKLEIKGGGGSGGGGSGASGAGGGGSGGGGSQVQLVQSGAEVKKPGASVKVSCKASGYTFTDYVVHWVRQAPGQGLEWMGYINPYNDGTKYNEKFKGRVTMTRDTSISTAYMELSRLRSDDTAVYYCARDYRYEVYGMDYWGQGTLVTVSSGGGGSAAAKPLPEVTDEYARGGPEQKLISEEDLNSAVDHHHHHH
Regarding B2, in the series with CD33 antigen, the “EC50, 51Cr-release lysis of MOLM-13 by UniCAR T cells, e:t 1:1, 24 h; combination of αCD33 TM + αCD123 TM” value was determined as 70.2 pmol; the “EC50, 51Cr-release lysis of OCI-AML3 by UniCAR T cells, e:t 1:1, 24 h; combination of αCD33 TM + αCD123 TM” value came out at 80.2 pmol; the “EC50, lysis of MOLM-13 by UniCAR T cells, e:t 1:1” value worked out at 137 pmol.

B3: target module specific for PSMA (scFv)
scFv: DAAQPAEVQLQQSGPELVKPGTSVRISCKTSGYTFTEYTIHWVKQSHGKSLEWIGNINPNNGGTTYNQKFEDKATLTVDKSSSTAYMELRSLTSEDSAVYYCAAGWNFDYWGQGTTVTVSSGGGGSGGGGSGGGGSDIVMTQSHKFMSTSVGDRVSIICKASQDVGTAVDWYQQKPGQSPKLLIYWASTRHTGVPDRFTGSGSGTDFTLTITNVQSEDLADYFCQQYNSYPLTFGAGTMLDLKAAAKPLPEVTDEYARGGPEQKLISEEDLNSAVDHHHHHH
On to B3, for which the “Half maximal effective dosis (EC50), 51Cr-release lysis of PC3 cells expressing PSMA by UniCAR T cells, e:t 5:1” value in series [1] was around 12 pmol.

B4: bi-specific CD33-CD123 target module (bispecific antibody)
chain: DAAQPAEVQLQQSGPELVKPGASVKMSCKASGYTFTDYYMKWVKQSHGKSLEWIGDIIPSNGATFYNQKFKGKATLTVDRSSSTAYMHLNSLTSEDSAVYYCTRSHLLRASWFAYWGQGTLVTVSAASGGGGSGGGGSGGGGSDFVMTQSPSSLTVTAGEKVTMSCKSSQSLLNSGNQKNYLTWYLQKPGQPPKLLIYWASTRESGVPDRFTGSGSGTDFTLTISSVQAEDLAVYYCQNDYSYPYTFGGGTKLEIKAAAKPLPEVTDEYARGQVQLVQSGAEVKKPGASVKVSCKASGYTFTDYVVHWVRQAPGQGLEWMGYINPYNDGTKYNEKFKGRVTMTRDTSISTAYMELSRLRSDDTAVYYCARDYRYEVYGMDYWGQGTLVTVSSGGGGSGGGGSGGGGSDIVLTQSPASLAVSPGQRATITCTASSSVNYIHWYQQKPGQPPKLLIYDTSKVASGVPARFSGSGSGTDFTLTINPVEANDTANYYCQQWRSYPLTFGQGTKLEIKGPEQKLISEEDLNSAVDHHHHHH
Take B4: in the series with CD123 antigen, the “EC50, 51Cr-release lysis of MOLM-13 by UniCAR T cells, e:t 1:1, 24 h; bispecific TM” value is 2.9 pmol and the “EC50, 51Cr-release lysis of OCI-AML3 by UniCAR T cells, e:t 1:1, 24 h; bispecific TM” value turned out to be 11.7 pmol. Moreover, in the series with CD33 antigen, the “EC50, 51Cr-release lysis of MOLM-13 by UniCAR T cells, e:t 1:1, 24 h; bispecific TM” value is 2.9 pmol and the “EC50, 51Cr-release lysis of OCI-AML3 by UniCAR T cells, e:t 1:1, 24 h; bispecific TM” value came out at 11.7 pmol.

B5: target module specific for PSCA (scFv)
scFv: DAAQPAGSDIQMTQSPSSLSASVGDRVTITCGTSQDINNYLNWYQQKPGKVPKLLIYYTSRLHSGVPSRFSGSGSGTDFTLTISSLQPEDVATYYCQQSKTLPWTFGGGTQLTVLGGGGSGGGGSGASAAGGGGSGGGGSQVQLVESGGGLVKPGGSLRLSCAASGFTFSSYSMSWIRQAPGKGLEWVSYINDSGGSTFYPDTVKGRFTISRDNAKNSLYLQMNSLRAEDTAVYYCARRMYYGNSHWHFDVWGQGTTVTVSSGGGGSAAAKPLPEVTDEYARGGPEQKLISEEDLNSAVDHHHHHH
For the molecule B5, the “Half maximal effective dosis (EC50), 51Cr-release lysis of PC3 cells expressing PSCA by UniCAR T cells, e:t 5:1” value in series [2] is around 12 pmol.

The record behind these values is patent US10611814 (GEMOAB MONOCLONALS, dated 2020).
